# Results as given in FireProtDB (doi:10.1111/j.1432-1033.1996.00516.x).
# B1: Guanyl-specific ribonuclease T1 wild type, P00651 (protein)
# chain: MMYSKLLTLTTLLLPTALALPSLVERACDYTCGSNCYSSSDVSTAQAAGYQLHEDGETVGSNSYPHKYNNYEGFDFSVSSPYYEWPILSSGDVYSGGSPGADRVVFNENNQLAGVITHTGASGNNFVECT
# Conditions: Aspergillus oryzae (strain ATCC 42149 / RIB 40), GdnHCl, Fluorescence, reversible: yes, whole UniProt chain shown
# [1] = pH 5, 10 °C, Sodium acetate 0.1 M
# [2] = pH 5, 25 °C, Sodium acetate 0.1 M
protein,measurement,setting,value
B1,denaturant m value,[1],2.49 kcal/mol/M
same,denaturant midpoint (higher = more stable),[1],3.94 M
same,denaturant m value,[2],2.75 kcal/mol/M
same,denaturant midpoint (higher = more stable),[2],3.63 M
same,denaturant m value,"pH 8, 10 °C, PIPES 0.1 M",2.63 kcal/mol/M
same,denaturant midpoint (higher = more stable),"pH 8, 10 °C, PIPES 0.1 M",3.21 M
same,denaturant m value,"pH 8, 25 °C, PIPES 0.1 M",2.46 kcal/mol/M
same,denaturant midpoint (higher = more stable),"pH 8, 25 °C, PIPES 0.1 M",2.4 M
